Target: 人重链铁蛋白(HFn) (人铁蛋白H亚基, wild type, recombinant from E. coli) (human)
Assay: ELISA, antigen coated at 1 μg/ml, purified antibody titrated, HRP goat anti-mouse IgG, OD450

Sequence of 人重链铁蛋白(HFn) (人铁蛋白H亚基, wild type, recombinant from E. coli) (human) (chain, as listed by the source): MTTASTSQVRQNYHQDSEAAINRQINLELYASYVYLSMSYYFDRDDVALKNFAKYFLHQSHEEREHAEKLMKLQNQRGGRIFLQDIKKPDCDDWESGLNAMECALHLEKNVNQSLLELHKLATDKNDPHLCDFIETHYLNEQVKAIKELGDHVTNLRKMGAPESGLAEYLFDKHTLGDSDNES

B1: 单克隆抗体3A (抗人重链铁蛋白的抗体3A, secreted by hybridoma 3A7 1B6, CGMCC NO:21906) (antibody, IgG2b, V domains shown)
VH: EVQLQQPGAELVKPGTSVKLSCKASGYIFTSYWMHWVKQRPGQGLEWIGEINPSNARTNYNEKFKSKATLTVDKSSSTTYMQLSSLTSEDSAVYYCARSSYGKNAMDYWGQGTSVTVSS
VL: DIQMTQTPSSLSASLGDRVTISCRTSQDISNYLNWYQQKPDGTVKLLIYYTSRLHSGVPSRFSGSGSGTAYSLTISNLEQEDIATYLCQEGNTLPRTFGGGTKLEIKR
notes: also called 3A单抗; 3A抗体
In the case of B1, the EC50 is reported as 3.68 ng/mL.
